Results: patent publication US20230391881A1 (UNIVERSITY OF VIRGINIA PATENT FOUNDATION, published 2023)

Key:
[1] = target: T1, Chi-G4S-DR5 (chimeric DR5: human DR5 extracellular domain, G4S linker, mouse DR5 transmembrane and … (chimeric: human DR5 ECD, mouse DR5 TM …)); experiment: flow cytometry on Chi-G4S-DR5 stable 4T1 cells (FIG. 15A)
T1 construct: Stably expressed on murine 4T1 cells; also called Chimeric human-mouse DR5 G4S

FOLR1 = target: T2, FOLR1 (UniProt P15328 25-234); experiment: immunoprecipitation, immunoblot with commercial FOLR1 antibody (FIG. 14C)
T2 construct: also called folate receptor alpha
T2 sequence (P15328 25-234 limits assumed): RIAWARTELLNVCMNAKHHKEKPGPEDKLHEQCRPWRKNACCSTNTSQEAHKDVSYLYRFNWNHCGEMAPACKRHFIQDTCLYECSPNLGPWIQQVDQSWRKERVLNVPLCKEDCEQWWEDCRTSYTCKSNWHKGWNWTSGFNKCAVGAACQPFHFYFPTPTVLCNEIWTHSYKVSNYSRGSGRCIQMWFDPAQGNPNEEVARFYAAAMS

binding result [1] | binding result (FOLR1) | Binder
binds |  | Tigatuzumab (antibody, human IgG1, kappa, L234A L235A, V domains shown, also called clinical tigatuzumab antibody) VH: EVQLVESGGGLVQPGGSLRLSCAASGFTFSSYVMSWVRQAPGKGLEWVATISSGGSYTYYPDSVKGRFTISRDNAKNTLYLQMNSLRAEDTAVYYCARRGDSMITTDYWGQGTLVTVSS VL: DIQMTQSPSSLSASVGDRVTITCKASQDVGTAVAWYQQKPGKAPKLLIYWASTRHTGVPSRFSGSGSGTDFTLTISSLQPEDFATYYCQQYSSYRTFGQGTKVEIKR
 | binds | Farletuzumab (antibody, V domains shown, also called clinical anti-FOLR1, farletuzumab) VH: EVQLVESGGGVVQPGRSLRLSCSASGFTFSGYGLSWVRQAPGKGLEWVAMISSGGSYTYYADSVKGRFAISRDNAKNTLFLQMDSLRPEDTGVYFCARHGDDPAWFAYWGQGTPVTVSS VL: DIQLTQSPSSLSASVGDRVTITCSVSSSISSNNLHWYQQKPGKAPKPWIYGTSNLASGVPSRFSGSGSGTDYTFTISSLQPEDIATYYCQQWSSYPYMYTFGQGTKVEIKR
